First the molecules themselves.
B1: CT-F3 (bispecific antibody, human IgG1, kappa)
scFv: EVQLVESGGGLVQPGGSLRLSCAASGFTFSTYAMNWVRQAPGKGLEWVARIRSKYNNYATYYADSVKDRFTISRDDSKNTLYLQMNSLRAEDTAVYYCARHGNFGNSYVSWFAYWGQGTMVTVSSGGGGSGGGGSGGGGSQAVVTQEPSLTVSPGGTVTLTCGSSTGAVTTSNYANWVQQKPGQAPRGLIGGTNKRAPGVPARFSGSLLGGKAALTLSGAQPEDEAEYYCALWYSNLWVFGGGTKLEIKGGGGSDKTHTCPPCPAPEFEGGPSVFLFPPKPKDTLMISRTPEVTCVVVDVSHEDPEVKFNWYVDGVEVHNAKTKPREEQYNSTYRVVSVLTVLHQDWLNGKEYKCKVSNKALPASIEKTISKAKGQPREPQVCTLPPSRDELTKNQVSLSCAVKGFYPSDIAVEWESNGQPENNYKTTPPVLDSDGSFFLVSKLTVDKSRWQQGNVFSCSVMHEALHNHYTQKSLSLSPGK
heavy: EVQLLESGGGLVQPGGSLRLSCAVSGFTFNSFAMSWVRQAPGKGLEWVSAISGSGGGTYYADSVKGRFTISRDNSKNTLYLQMNSLRAEDTAVYFCAKDKILWFGEPVFDYWGQGTLVTVSSASTKGPSVFPLAPSSKSTSGGTAALGCLVKDYFPEPVTVSWNSGALTSGVHTFPAVLQSSGLYSLSSVVTVPSSSLGTQTYICNVNHKPSNTKVDKKVEPKSCDKTHTCPPCPAPEFEGGPSVFLFPPKPKDTLMISRTPEVTCVVVDVSHEDPEVKFNWYVDGVEVHNAKTKPREEQYNSTYRVVSVLTVLHQDWLNGKEYKCKVSNKALPASIEKTISKAKGQPREPQVYTLPPCRDELTKNQVSLWCLVKGFYPSDIAVEWESNGQPENNYKTTPPVLDSDGSFFLYSKLTVDKSRWQQGNVFSCSVMHEALHNHYTQKSLSLSPGK
light: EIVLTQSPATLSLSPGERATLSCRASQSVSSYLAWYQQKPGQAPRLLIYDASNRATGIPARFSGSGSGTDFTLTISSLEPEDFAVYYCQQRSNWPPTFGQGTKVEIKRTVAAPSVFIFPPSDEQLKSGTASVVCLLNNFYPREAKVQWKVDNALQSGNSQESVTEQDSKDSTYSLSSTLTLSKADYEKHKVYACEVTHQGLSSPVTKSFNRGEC
notes: Comparative: anti-CD38 (Dara) Fab arm and anti-CD3 scFv (CD3 antibody 1 VH, CD3 antibody 2 VL)-Fc fusion peptide
B2: Y150-F8-5 (bispecific antibody, human IgG1, kappa)
scFv: QVQLVESGGGVVQPGRSLRLSCAASGFTFSTYAMNWVRQAPGKGLEWVARIRSKYNNYATYYADSVKDRFTISRDDSKNTLYLQMNSLRAEDTAVYYCARHGNFGNSYVSWFAYWGQGTLVTVSSGGGGSGGGGSGGGGSQTVVTQEPSLTVSPGGTVTLTCRSSTGAVTTSNYANWVQQKPGQAPRGLIGGTNKRAPGVPARFSGSLLGGKAALTLSGVQPEDEAEYYCALWYSNLWVFGGGTKVEIKGGGGSDKTHTCPPCPAPEFEGGPSVFLFPPKPKDTLMISRTPEVTCVVVDVSHEDPEVKFNWYVDGVEVHNAKTKPREEQYNSTYRVVSVLTVLHQDWLNGKEYKCKVSNKALPASIEKTISKAKGQPREPQVCTLPPSRDELTKNQVSLSCAVKGFYPSDIAVEWESNGQPENNYKTTPPVLDSDGSFFLVSKLTVDKSRWQQGNVFSCSVMHEALHNHYTQKSLSLSPGK
heavy: EVQLLESGGGLVQPGGSLRLSCAVSGFTFNSFAMSWVRQAPGKGLEWVSAISGSGGGTYYADSVKGRFTISRDNSKNTLYLQMNSLRAEDTAVYFCAKDKILWFGEPVFDYWGQGTLVTVSSASTKGPSVFPLAPSSKSTSGGTAALGCLVKDYFPEPVTVSWNSGALTSGVHTFPAVLQSSGLYSLSSVVTVPSSSLGTQTYICNVNHKPSNTKVDKKVEPKSCDKTHTCPPCPAPEFEGGPSVFLFPPKPKDTLMISRTPEVTCVVVDVSHEDPEVKFNWYVDGVEVHNAKTKPREEQYNSTYRVVSVLTVLHQDWLNGKEYKCKVSNKALPASIEKTISKAKGQPREPQVYTLPPCRDELTKNQVSLWCLVKGFYPSDIAVEWESNGQPENNYKTTPPVLDSDGSFFLYSKLTVDKSRWQQGNVFSCSVMHEALHNHYTQKSLSLSPGK
light: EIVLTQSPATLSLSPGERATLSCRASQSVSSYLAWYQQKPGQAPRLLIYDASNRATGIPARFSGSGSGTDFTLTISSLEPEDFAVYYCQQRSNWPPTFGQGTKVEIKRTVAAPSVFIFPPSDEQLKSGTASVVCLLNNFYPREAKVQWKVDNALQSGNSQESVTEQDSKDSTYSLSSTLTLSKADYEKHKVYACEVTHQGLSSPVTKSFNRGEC
notes: also called Y150-8-5
B3: CT-F2 (bispecific antibody, human IgG1, kappa)
scFv: EVQLVESGGGLVQPGGSLRLSCAASGFTFNTYAMNWVRQAPGKGLEWVGRIRSKYNNYATYYADSVKGRFTISRDDSKNTLYLQMNSLRAEDTAVYYCARHGNFGNSYVSWFAYWGQGTLVTVSSGGGGSGGGGSGGGGSQAVVTQEPSLTVSPGGTVTLTCGSSTGAVTTSNYANWVQQKPGQAPRGLIGGTNKRAPGVPARFSGSLLGGKAALTLSGAQPEDEAEYYCALWYSNLWVFGGGTKLEIKGGGGSDKTHTCPPCPAPEFEGGPSVFLFPPKPKDTLMISRTPEVTCVVVDVSHEDPEVKFNWYVDGVEVHNAKTKPREEQYNSTYRVVSVLTVLHQDWLNGKEYKCKVSNKALPASIEKTISKAKGQPREPQVCTLPPSRDELTKNQVSLSCAVKGFYPSDIAVEWESNGQPENNYKTTPPVLDSDGSFFLVSKLTVDKSRWQQGNVFSCSVMHEALHNHYTQKSLSLSPGK
heavy: EVQLLESGGGLVQPGGSLRLSCAVSGFTFNSFAMSWVRQAPGKGLEWVSAISGSGGGTYYADSVKGRFTISRDNSKNTLYLQMNSLRAEDTAVYFCAKDKILWFGEPVFDYWGQGTLVTVSSASTKGPSVFPLAPSSKSTSGGTAALGCLVKDYFPEPVTVSWNSGALTSGVHTFPAVLQSSGLYSLSSVVTVPSSSLGTQTYICNVNHKPSNTKVDKKVEPKSCDKTHTCPPCPAPEFEGGPSVFLFPPKPKDTLMISRTPEVTCVVVDVSHEDPEVKFNWYVDGVEVHNAKTKPREEQYNSTYRVVSVLTVLHQDWLNGKEYKCKVSNKALPASIEKTISKAKGQPREPQVYTLPPCRDELTKNQVSLWCLVKGFYPSDIAVEWESNGQPENNYKTTPPVLDSDGSFFLYSKLTVDKSRWQQGNVFSCSVMHEALHNHYTQKSLSLSPGK
light: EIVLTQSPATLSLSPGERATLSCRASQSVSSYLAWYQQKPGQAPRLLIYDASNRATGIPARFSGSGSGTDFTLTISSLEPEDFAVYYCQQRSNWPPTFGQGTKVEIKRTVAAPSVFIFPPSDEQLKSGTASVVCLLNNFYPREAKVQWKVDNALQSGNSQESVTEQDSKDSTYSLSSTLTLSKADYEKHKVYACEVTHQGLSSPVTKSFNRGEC
notes: Comparative: anti-CD38 (Dara) Fab arm and anti-CD3 scFv (CD3 antibody 2 VH/VL)-Fc fusion peptide
B4: CT-F1 (bispecific antibody, human IgG1, kappa)
scFv: EVQLVESGGGLVQPGGSLRLSCAASGFTFSTYAMNWVRQAPGKGLEWVARIRSKYNNYATYYADSVKDRFTISRDDSKNTLYLQMNSLRAEDTAVYYCARHGNFGNSYVSWFAYWGQGTMVTVSSGGGGSGGGGSGGGGSQAVVTQEPSLTVSPGGTVTLTCRSSTGAVTTSNYANWVQQKPGQAPRGLIGGTNKRAPGTPARFSGSLLGGKAALTLSGVQPEDEAEYYCALWYSNLWVFGGGTKLTVLGGGGSDKTHTCPPCPAPEFEGGPSVFLFPPKPKDTLMISRTPEVTCVVVDVSHEDPEVKFNWYVDGVEVHNAKTKPREEQYNSTYRVVSVLTVLHQDWLNGKEYKCKVSNKALPASIEKTISKAKGQPREPQVCTLPPSRDELTKNQVSLSCAVKGFYPSDIAVEWESNGQPENNYKTTPPVLDSDGSFFLVSKLTVDKSRWQQGNVFSCSVMHEALHNHYTQKSLSLSPGK
heavy: EVQLLESGGGLVQPGGSLRLSCAVSGFTFNSFAMSWVRQAPGKGLEWVSAISGSGGGTYYADSVKGRFTISRDNSKNTLYLQMNSLRAEDTAVYFCAKDKILWFGEPVFDYWGQGTLVTVSSASTKGPSVFPLAPSSKSTSGGTAALGCLVKDYFPEPVTVSWNSGALTSGVHTFPAVLQSSGLYSLSSVVTVPSSSLGTQTYICNVNHKPSNTKVDKKVEPKSCDKTHTCPPCPAPEFEGGPSVFLFPPKPKDTLMISRTPEVTCVVVDVSHEDPEVKFNWYVDGVEVHNAKTKPREEQYNSTYRVVSVLTVLHQDWLNGKEYKCKVSNKALPASIEKTISKAKGQPREPQVYTLPPCRDELTKNQVSLWCLVKGFYPSDIAVEWESNGQPENNYKTTPPVLDSDGSFFLYSKLTVDKSRWQQGNVFSCSVMHEALHNHYTQKSLSLSPGK
light: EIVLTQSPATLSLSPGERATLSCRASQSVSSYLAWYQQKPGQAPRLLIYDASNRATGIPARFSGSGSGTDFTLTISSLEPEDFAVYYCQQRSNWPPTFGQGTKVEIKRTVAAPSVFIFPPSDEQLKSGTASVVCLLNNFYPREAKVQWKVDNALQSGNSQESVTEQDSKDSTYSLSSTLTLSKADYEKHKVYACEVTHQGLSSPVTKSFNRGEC
notes: Comparative: anti-CD38 (Dara) Fab arm and anti-CD3 scFv (CD3 antibody 1 VH/VL)-Fc fusion peptide

The test addresses T1, monkey CD3 (monkey).
T1 construct: whole, on cells; also called CD3 on monkey CD3 positive T cells
In words: flow cytometry on monkey CD3 positive T cells. In general terms: Flow cytometry measures light scatter and fluorescence of single cells or particles in a stream.
For orientation: EC50 means the midpoint of the concentration-response curve. Turning to B1, the midpoint of the response, the EC50, lay at 229 nM.

Molecule B2 had an EC50 of 291 nM.

As for B3, the EC50 came out at 174 nM.

Regarding B4, the EC50 turned out to be 347 nM.

These data come from patent US20220041721A1 (WUHAN YZY BIOPHARMA, published 2022).
